{"source": "the DeepSol protein solubility set"}
{"experiment": "soluble on expression in E. coli; label from the status in PepcDB or PDB records"}
{"sequence": "METSIFDDVETRIDNNEIIAQQHAEDLFELYLKIQNAEKDSVIDIRKEASADHEEMLCELRNDLSQVMKMGMVNLSMQIIAQERNNRRKVNQHIINIKSKTEEIDKFFQRAISVLGAPPGYPAKKEEKAKTKNYLIQFGEVLLSISTMVTNLEQSLACYELKEVLMNGMISQIRTQISDFNKVIPNFKRILNSENQEIDPDNYEKFVDMKKRLFAMVNCLHLISEKRGEMNRLIEEKMNLSMPQFQNLQISNGT", "soluble on expression in E. coli": "not soluble"}
{"sequence": "MEVFGKSPMVVTSANVIYLSAILGRDCDGHKCDWKCENENVCGNMYRCKLTGLTHVCDKNCNQRILYDNHSSLCRASGRIFPLSSVEEQAVKGVRRKLDAAESHPSESCSFKRRRRDAQFHASPFERSFTAVSPICSPAGDGMELV", "soluble on expression in E. coli": "not soluble"}
{"sequence": "MEVKAFLERETLDRTLGVRYLKAEKDEVVAELVVTPKVHQPFGFLHGGATVALAESVASVGGFLNCPPGHAAFGLEINCNHLRKKREGTIRAVGRPLHVGRTTQVWEVKVYDEEGRLVAASRCTLAVVPLEPAKEPA", "soluble on expression in E. coli": "soluble"}
{"sequence": "MEVKKVLVSAFLLTTCLMSGQAQRRNEIQVPDLDGYTTLKCDFHMHSVFSDGLVWPTVRVDEAYRDGLDAISLTEHIEYRPHKQDVVSDHNRSFDLCREQAEKLGILLIKGSEITRAMAPGHFNAIFLSDSNPLEQKDYKDAFREAKKQGAFMFWNHPGWDSQQPDTTKWWPEHTALYQEGCMHGIEVANGHLYMPEAIQWCLDKNLTMIGTSDIHQPIQTDYDFEKGEHRTMTFVFAKERSLQGIREALDNRRTAAYFHELLIGREDLLRPFFEKCVKIEEVSRNEQGVTLSITNVTDLVLKLKKTAHDTLLVYFRDMTLKPHTRYTVRIGFKQGIKGGDVNFEVTNFIVAPDKGLKYTISL", "soluble on expression in E. coli": "not soluble"}
{"sequence": "MEWLNEPPNWSHSDQKIIVTTSPKTDFWRITHYGFIRDSGHFYFDRVSTDFVVDVKIKGNYKDLYDQAGIMIRADEQHWIKTGIEYVDGVQNLSAVVTHNYSDWSFTPLLNPPNIFQVRVERCQEAIHIAYLDEYSRYVPFRMAYFPVALDIQVGIMCASPQGNGYEVIFEDYQLTKKGEKLSLEHHHHHH", "soluble on expression in E. coli": "not soluble"}
{"sequence": "MEYLFLRRKKTRYTSVRQKTLLYRAASRRWEKEFALRTDVRRIDALIYKGILYLMEVRQVFLDSSLSLKTLSAMLETNQTYLSNVVNRYFGCNLKELVNTYRVEYAKELLRSGRCPIEEVPVRSGFGSKSPFYVAFGKVTGMTPRQYVAHERNPLKQEENN", "soluble on expression in E. coli": "not soluble"}
{"sequence": "MEYLFLRRKRTTATSERQKTLLFKAAERQWKEEFAGKETDIRKVDCNIYKGILYQLEIRQVFLDTSLSLKKLSALLETNQTYLSNVVNKYFGCNLKELVNTYRVEYAKELLCSRRCALTELPCSCGFASKSAFYSAFSRIVGVSPLSYQTQERRRHHLQAVNLEHHHHHH", "soluble on expression in E. coli": "not soluble"}
{"sequence": "MEYRITGKGVEISEAIKNYLEKRLDKIDRVIYDDDLVSFNVRIEKDGKNQYVVKFNMNLKGNIINVEERHPDIYTAIDFASDALEKQVKRLKERLKNHPHRSSALVETPLEEPGEFSPSDKVSSVKRVSLLNLDLDEAVMQMDELNHRFLVFRNVNTGEINLLYRDENGDIHLIEMAE", "soluble on expression in E. coli": "not soluble"}
{"sequence": "MEYTQIPSFALYNNASIFQFFPRNKRLSTHQKSCLDEHARKMAVFMMERQEEYRYYENLANQEQFSDDACFSDTGMDSGFCSGDTSTGQSASTSPAPAHLIPNPFFDPEYVASKTTMKLVANPFYNPKLAKEIKKKSTHTSKFQ", "soluble on expression in E. coli": "not soluble"}
{"sequence": "MFAPALAYPRPMPELPEVETTRRKIEPLLRGKTIERIVHDAPHRYRNTERAHGRQVRGLTRRGKYLLLHLAAADAAEDEPHDLELIVHLGMTGGFRLEEGPHTRVTFELGSGEKLYFNDPRRFGKVVAVAPGDYASMPTLAAMGPEPLSDDFTEAEFVALAARCGPVKPWLLSQKPVSGVGNIYADESLWHARLHPAQTRLNADEAGRLYRAIREVMAAAVDKGGSSLGNGVGNYRQHDGEGGGFQHSHHVYGRAGQPCDRCGTPIEKIVLGQRGTHFCPVCQPLRTDRSA", "soluble on expression in E. coli": "not soluble"}
{"sequence": "MFAYDRLALDLAVFNLKDVDSGNSSSSERSSPPTRIMSQAQNINDESGSSGYGSPTRTPLASPSNDIFSSVLPLQVQRAFSAQSPEEITRHFGVSPSPQAVKPVPEVQQQREQAQVSQTSAQGLAAVDGFSMAEIAGFAELLSSPKKTPPPRYQCHICYATGHHYISDCPQRFNTPYDELTPYQGRKKCYGEFTCQLCKRKWNSQNSVANEPQSCIKCHVPVFPHKQLPVEKAVTLGLIKAQNVTKVAPIGHGRPPARKHEEISRRH", "soluble on expression in E. coli": "not soluble"}
{"sequence": "MFCFLQLPYHPNSSVHISTIDRITNSGRLYQYYSAEMTAEVIDFTKRNLEEAMNHNERRLLFRRSRSEPMTLTNENITMTSRTDPEWNMTVDSISIQSSFAEYQHRRKERLKKQEAHKTSEISLSSGPSELAMKGHTDFDAAIEFLDNKMPSTLSLTDSDNSHSSNDITSSQAKEISYEDEMRLFIEKTGHLVTNVFADPFDSDERKSRTEMWVEASTENLAEGGTTSDDVPTEKELELDMENNDILAESVVGTGTGELNDEKDEETVPVGLIPPVARQSTEDSILSSNVTVNSLLKSKLTINLKEASEALSEIDIADVDRFWDYLYEKDDIQKFSDELIYPIKMEIPSTSSSERSIGIALSPIKLDFAGIHVQKTGKIEKHIKMNSNEEKDRELDEPLEITDQTVETRFFELETTKNLEKINRGTTTSEHGNILIKTTASQTPVSQEVVQLVNYEPINFTKAQSDRNFDEKENMIRAFSFKLSESFYKDLKILVVERDRAKEAMDILPAKTMKELSEECNYYQTRYRVRIEQNKEKLDRRIEEVWKKLLKMPIESQEVIDFISVAHSELLTLNARRNLPDNM", "soluble on expression in E. coli": "not soluble"}
{"sequence": "MFDFIGNGSAFNTERGNNSAFIKKNSSMILVDCGGTVFHRIKQLNLLQDIKNLYIIITHTHPDHIGSLGDLIFYCYYILKFKPTIIYPNKDIITDFFNIIGVGDEMYELVSDNKVNLTAPEFGDLNIEFIPASHVGVIPAYGFLIGMSDNLVYYSGDGNKLPEKNYKMAGDPLEHHHHHH", "soluble on expression in E. coli": "not soluble"}
{"sequence": "MFDFSKVVDRHGTWCTQWDYVADRFGTADLLPFTISDMDFATAPCIIEALNQRLMHGVFGYSRWKNDEFLAAIAHWFSTQHYTAIDSQTVVYGPSVIYMVSELIRQWSETGEGVVIHTPAYDAFYKAIEGNQRTVMPVALEKQADGWFCDMGKLEAVLAKPECKIMLLCSPQNPTGKVWTCDELEIMADLCERHGVRVISDEIHMDMVWGEQPHIPWSNVARGDWALLTSGSKSFNIPALTGAYGIIENSSSRDAYLSALKGRDGLSSPSVLALTAHIAAYQQGAPWLDALRIYLKDNLTYIADKMNAAFPELNWQIPQSTYLAWLDLRPLNIDDNALQKALIEQEKVAIMPGYTYGEEGRGFVRLNAGCPRSKLEKGVAGLINAIRAVR", "soluble on expression in E. coli": "soluble"}
{"sequence": "MFDPKKFIDEAVEEIKQQISDRKAIIALSGGVDSSVAAVLTHKAIGDKLTAVFVDTGLMRKGEREEVEKTFRDKLGLNLIVVDAKDRFLNALKGVTDPEEKRKIIGKLFIDVFEEIAEDIKAEVLVQGTIAPDWIETQGKIKSHHNVALPHGMVLEVVEPLRELYKDEVRLLAKELGLPDSIVYRQPFPGPGLAVRVLGEVTEEKLNICREANAIVEEEVKKANLDKDLWQYFAVVLDCKATGVKGDEREYNWIVALRMVKSLDAMTAHVPEIPFDLLKRISKRITSEIPNVARVVFDITDKPPATIEFE", "soluble on expression in E. coli": "soluble"}
{"sequence": "MFDTLTHGELLKKTAMEVEADIAGIHKQIEEISERNEWRVLQSYRKHKVSDTHFTPSTGYGYDDIGRDTLESIYADVFGGEAGLVRPQIISGTHAISIALFGVLRPGDELLYITGKPYDTLEEIVGVRGGENAGSLKDFQIGYNAVDLTKDGKIDYDAVAAAINPKTKVIGIQRSKGYANRPSFLISEIKEMIRFVKEINENLIVFVDNCYGEFVEELEPCHVGADLMAGSLIKNPGGGLAKTGGYLVGKAKWIEACSYRMTSPGIGREAGASLYSLQEMYQGFFLAPHVVSQSLKGAVFTARFLEKLGFTSNPKWDAKRTDLIQSVEFSDGEKMIAFCQAIQFASPIDAHVTPYPAYMPGYEDDVIMAAGTFIQGASIELSADGPIRPPYVAYVQGGLTYSHVKNAICSAVDSLMQKQLILEHHHHHH", "soluble on expression in E. coli": "soluble"}
{"sequence": "MFDYSAHPELLKGRVILVTGAARGIGAAAARAYAAHGASVVLLGRTEASLAEVSDQIKSAGQPQPLIIALNLENATAQQYRELAARVEHEFGRLDGLLHNASIIGPRTPLEQLPDEDFMQVMHVNVNATFMLTRALLPLLKRSEDASIAFTSSSVGRKGRANWGAYGVSKFATEGLMQTLADELEGVTAVRANSINPGATRTGMRAQAYPDENPLNNPAPEDIMPVYLYLMGPDSTGINGQALNAQ", "soluble on expression in E. coli": "soluble"}
{"sequence": "MFENLTDRLSKTLKNISGKGRLTEDNIKDTLREVRMALLEADVALPVVRDFVNRVKEGAVGVEVSKSLTPGQEFIKIVRQQLEAVMGESNEALNLAAQPPAVILMAGLQGAGKTTSVGKLSKLLKERDKKKVLVVSADVYRPAAIKQLETLANDLGVDFFPSTPDQKPIDIANAAIDHAKKKFYDVLIVDTAGRLAIDEQMMAEIQALHKAINPVETLFVVDAMTGQDAADTAKAFGDALPLTGVILTKVDGDARGGAALSVRHITGKPIKFIGVGEKTDALEPFHPDRIASRILGMGDVLSLIEDLQRNVDQEKAEKLAKKFKEKKGFDLEDFREQLGQMKNMGGMMGMLDKLPGMSQLPADMKDKVDDRVFKQMEAIINSMTMKERQNPDLIKGSRKKRIAAGSGTQVQDVNRLLKQFTQMQKMMKKMQQGGMKGMMRNMQGLMGGGGRGGFGGGFFGR", "soluble on expression in E. coli": "not soluble"}
{"sequence": "MFFESCKSILYSDTLVPDIFITEYMPLLSSDSVKVYLYSLFLSKHNKKASTEEFAKSMGLEISTVKECLAQLESMGVLTWKEDGLVLHDLKEKEINKMYRLKTTSTPEEVASNCEKNKKRNEIIYTINNTFFQGVMSPSWYTDIDAWFDRYKFDEDVMLALFQYCFDHKGLIKPYIEKVAESWKNRNIRNAFDLDNYSIQYKKFKDVRSAIVKKLKLGRNLTEYEEAYVEKWVMDYNYDFDIIELALKKTTSKTNPNFDYLDSIITDWHNNNFKTKEEIMSYEAARKKKNSRTSSVSASVIVPQKGNFEQRKYEDEYLNSLYENA", "soluble on expression in E. coli": "not soluble"}
{"sequence": "MFFKQFYDKHLSQASYLIGCQKTGEAMIIDPIRDLSSYIRVADEEGLTITHAAETHIHADFASGIRDVAIKLNASIYVSGESDDTLGYKNMPNQTHFVQHNDDIYVGNIKLKVLHTPGHTPESISFLLTDEGAGAQVPMGLFSGDFIFVGDIGRPDLLEKAVKVEGSSEIGAKQMFKSIESIKDLPNYIQIWPGHGAGSPCGKSLGAIPTSTLGYEKQTNWAFSENNEATFIDKLISDQPAPPHHFAQMKKINQFGMNLYQPYTVYPATNTNRLTFDLRSKEAYHGGHIEGTINIPYDKNFINQIGWYLNYDQEINLIGEYHLVSKATHTLQLIGYDDVAGYQLPQSKIQTRSIHSEDITGNESHILDVRNDNEWNNGHLSQAVHVPHGKLLETDLPFNRNDVIYVHCQSGIRSSIAIGILEHKGYHNIINVNEGYKDIHLSLEHHHHHH", "soluble on expression in E. coli": "soluble"}
{"sequence": "MFGCITMSENNQCVIVGIAGASASGKSLIASTIYNELRAKVGDHQIGVITEDCYYKDQSHLSMEERVKTNYDHPSALDHDLLCQHLQMLARGEAVEVPEYSYTEHTRTEQTTTMTPKKVIILEGILLLTDPRLRDLMHATVFMDTPLDICLLRRVKRDVQERGRTMESVLKQYQETVRPMFMQFIEPSKQYADIIVPRGGKNRIAIDVLKAHIAKLLKS", "soluble on expression in E. coli": "not soluble"}
{"sequence": "MFGRHSIIPNNQIGTASASAGEDHVSASATSGHIPYDDMEEIPHPDSIYGAASDLIPDGSQLVAHRSDGSELLVSRPPEGANQLTISFRGQVYVFDAVGADKVDAVLSLLGGSTELAPGPQVMELAQQQNHMPVVEYQSRCSLPQRAQSLDRFRKKRNARCFEKKVRYGVRQEVALRMARNKGQFTSSKMTDGAYNSGTDQDSAQDDAHPEISCTHCGISSKCTPMMRRGPSGPRTLCNACGLFWANRGTLRDLSKKTEENQLALMKPDDGGSVADAANNLNTEAASVEEHTSMVSLANGDNSNLLGDH", "soluble on expression in E. coli": "soluble"}
